Experimental data as given in publication PMC2171589 (The Journal of Cell Biology, 2005).

B1: ARF1, full-length myristoylated form (ADP ribosylation factor 1) (natural protein)
chain: not shown
modifications: myristoylated

What was measured:
Assay in all cases: pull-down
[1] = biological target: ARFGAP1, wild-type, 6x-his tagged, soluble (UniProt Q62848 1-415)
[2] = biological target: His-tagged, full-length, R50K point mutant GAP (UniProt Q62848 1-415, R50K)
[3] = biological target: ARFGAP1 as a GST fusion protein (GST-ARFGAP1) (UniProt Q62848 1-415)
ARFGAP1 as a GST fusion protein (GST-ARFGAP1), sequence (Q62848 whole entry, the tested form may be a part): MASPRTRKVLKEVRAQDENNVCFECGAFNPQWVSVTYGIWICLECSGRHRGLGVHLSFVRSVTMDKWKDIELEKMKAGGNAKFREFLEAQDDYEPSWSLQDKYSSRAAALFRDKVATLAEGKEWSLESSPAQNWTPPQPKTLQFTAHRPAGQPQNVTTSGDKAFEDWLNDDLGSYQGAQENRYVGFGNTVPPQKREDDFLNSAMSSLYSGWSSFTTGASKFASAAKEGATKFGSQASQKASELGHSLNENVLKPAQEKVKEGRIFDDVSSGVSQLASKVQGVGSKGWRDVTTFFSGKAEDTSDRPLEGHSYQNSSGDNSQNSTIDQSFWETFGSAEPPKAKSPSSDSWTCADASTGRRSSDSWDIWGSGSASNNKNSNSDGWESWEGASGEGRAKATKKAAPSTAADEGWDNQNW

[4] = biological target: point mutant GAP (R50K) as GST fusion protein (GST-R50K GAP) (UniProt Q62848 1-415, R50K)
point mutant GAP (R50K) as GST fusion protein (GST-R50K GAP), sequence (Q62848 whole entry R50K, the tested form may be a part): as the sequence (Q62848 whole entry, the tested form may be a part) above, with R50K counted along it

ARFGAP1, wild-type, 6x-his tagged, soluble, sequence (Q62848 whole entry): as the sequence (Q62848 whole entry, the tested form may be a part) above
His-tagged, full-length, R50K point mutant GAP, sequence (Q62848 whole entry R50K, the tested form may be a part): as the sequence (Q62848 whole entry, the tested form may be a part) above, with R50K counted along it

Binder	binding result [1]	binding result [2]	binding result [3]	binding result [4]
KKLETFKKTN (domain or fragment) [GST-Wbp1 (cytoplasmic domain of Wbp1 fused to GST)]	binds	binds	–	–
B1	–	–	binds	binds
